What was measured:
[1] = test system: human NAA40 E139Q; assay: Fluorescence-based in vitro Nt-acetylation assay, N-terminal 17-mer peptides, catalytically inactive NAA40 E139Q; type: biochemical; conditions: 17-mer peptide 15 μM, 10 μM acetyl-CoA, 0.1 μM hNAA40 E139Q, 25 mM HEPES pH 7.5, 5 min, triplicate, repeated two times, Fig. 1E
Procedure: (§1) hNAA40 (NCBI: NM_024771.4) WT and E139Q were cloned in pGEX-5 × 1 vector. The plasmids were transformed in BL21 (DE3) codon plus RIL pACYC E. coli cells, generously provided by Till Bartke (Institute of Functional Epigenetics, Helmholtz Munich). The transformed bacteria were grown in 40 mL Lysogeny Broth (LB) medium complemented with 100 μg/mL Ampicillin (Sigma A9518) and 25 μg/mL Chloramphenicol (Sigma C0378-5G) for 16 h at 37 °C. Final culture volume was adjusted to 400 mL with LB and the growth was resumed for 2 h. Protein expression was initiated by adding 0.1 mM isopropyl β-D-1-thiogalactopyranoside (IPTG) (Thermo Fisher Scientific 15529019) and incubating further for 4 h at 37 °C. Bacteria were pelleted and resuspended in ice cold PBS/1% Triton-X100 supplemented with protease inhibitors. Cells were lysed by small probe sonication (amplitude 30%, 3 × 45 s on ice). Lysate bacteria were pelleted, and the supernatant was incubated with Glutathione agarose beads (Cytiva 17075601) for 1 h. Then, washing steps were made with ice cold PBS/1% Triton-X100 and ice-cold PBS. The beads with the recombinant GST-NAA40 WT or E139Q were stored at − 20 °C in 80% PBS/20% glycerol. To obtain the GST tagged hNAA40, the buffer 50 mM Tris HCL pH 8, 20 mM reduced Glutathione-20% glycerol was used to elute the GST-NAA40. To obtain the untagged version of hNAA40, hNAA40 was enzymatically cut by Factor Xa (NEB P8010S) from the beads and was dialyzed in 50 mM Tris–HCL pH 7.5, 100 mM NaCl, 25% Glycerol. The recombinant proteins were confirmed by SDS-PAGE and the concentrations were determined using the BIO-RAD protein assay dye reagent (BIO-RAD 5000006) and Nanodrop 1000.
An adaptation of the previous described fluorescence assay was used to study the kinetics of hNAA40 with the histone substrates H2A.X, H2A, and H4. […] The fluorescence was monitored with Tecan Spark multimode reader with excitation 410 ± 20 nm and emission 475 ± 20 nm, and the duration of the reaction was 5 min. […]

[2] = biological target: T1, human NAA40 WT (Homo sapiens, UniProt Q86UY6); assay: Fluorescence-based in vitro Nt-acetylation assay, N-terminal 17-mer peptides, wild-type NAA40; type: biochemical; conditions: for Nt-acetylation by recombinant wild type NAA40: 17-mer peptide 15 μM, 0.1 μM hNAA40, 15 μM Thioglo4, 25 mM HEPES pH 7.5, 150 mM NaCl, 0.01% Triton X100, 5 min, fluorescence ex 410/em 475 nm, ΔRFU/min, triplicate, repeated two times, Fig. 1E
T1 construct: GST (N); made in house; host or cells: E. coli BL21 (DE3) codon plus RIL
Procedure: as §1
An adaptation of the previous described fluorescence assay was used to study the kinetics of hNAA40 with the histone substrates H2A.X, H2A, and H4. Specifically, the full-length histone proteins H2A.X (TEBU BIO 23615-0307), H2A, H4, and H2B, and 17-mer peptides corresponding to the N-terminal end of H4, H2A.X, H2A.J, SMARCD2 were tested with WT or E139Q hNAA40. The peptides used in this study were synthesized by BIOSYNTAN GmbH, with > 95% purity. Final substrate concentration was 15μM for the rate comparison between WT and E139Q hNAA40 (ΔRFU/min), and for the Km determination the concentration ranged from 0.1 μM to 25 μM (1:2 dilutions). The reactions were in triplicate, repeated two times and contained 15 μM Thioglo4 (Merck 595504), 10 μM Acetyl coenzyme A lithium salt (Santa Cruz sc-214465), 25 mM HEPES pH 7.5, 150 mM NaCl, 0.01% Triton X100), 0.1μM hNAA40 in a final volume of 40 μl. The reaction was initiated with the addition of the substrate. The fluorescence was monitored with Tecan Spark multimode reader with excitation 410 ± 20 nm and emission 475 ± 20 nm, and the duration of the reaction was 5 min. We generated the standard curve y = 685.2*X-92.53 using 0–10 μM 1:2 dilutions of Coenzyme A sodium salt hydrate (Merck C13144) and 25 mM HEPES pH 7.5, 150 mM NaCl, 0.01% Triton X100. GraphPad Prism 8 was used for the enzyme kinetics analyses.

| Substance | Nt-acetylation by catalytically inactive NAA40 (E139Q) [1] | Nt-acetylation by recombinant wild type NAA40 ([2]; 10 μM acetyl-CoA) | Michaelis constant (Km), stated as affinity (inverse measure) ([2]; 17-mer peptides 0.1 μM to 25 μM (1:2 dilutions), 10 μM acetyl-CoA, 0.1 μM hNAA40, pH 7.5, Fig. 1F) | catalytic efficiency (kcat/Km) ([2]; 17-mer peptides, Fig. 1H) |
| --- | --- | --- | --- | --- |
| H2A.J peptide: 17 amino acid long peptide corresponding to the N-terminal end of H2A.J (MSGRGKQGGKVRAKAKS; UniProt Q9BTM1 1-17, looked up, fragment) | not the catalytically inactive human NAA40 | Nt-acetylated by the wild-type | – | – |
| H2A.X peptide: 17 amino acid long peptide corresponding to the N-terminal end of H2A.X (SGRGKTGGKARAKAKSR; UniProt P16104 2-18, looked up, fragment) | not the catalytically inactive human NAA40 | Nt-acetylated by the wild-type | – | – |
| SMARCD2 peptide: 17 amino acid long peptide corresponding to the N-terminal end of SMARCD2 (MSGRGAGGFPLPPLSPG; UniProt Q92925 1-17, looked up, fragment) | not the catalytically inactive human NAA40 | Nt-acetylated by the wild-type | significantly lower | significantly lower than histones |

Source: publication PMC12265263, “H2A.X N-terminal acetylation is a newly identified NAA40-mediated modification that is responsive to UV irradiation” (Epigenetics & Chromatin, 2025)
